In the supplement of paper PMC9170038:

Test system: MS2 coat protein
Test: apparent KD of MS2 coat protein; designed switch direction (-1 OFF switch, 1 ON switch): -1; higher = weaker reporter binding
Procedure, shortened: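 RNA switches sharing common flanks were transcribed by stalled E. coli RNA polymerase on Illumina chips. A doubling series of SNAP-549-labelled MS2 coat protein, from 0.7 or 1.5 nM to 3 µM, was applied in Tris-HCl pH 7.5 buffer with KCl, MgCl2, BSA, DTT, tRNA and Tween-20. Each step lasted 0.8–1.5 h at the bottom of the series and 10–20 min at the top. Normalised cluster fluorescence was curve-fitted, giving apparent KD as the per-design median over clusters.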

[1] = input ligand: microRNA oligo, concentration not stated
[2] = Eterna round: R95, input ligand: FMN 200 uM
[3] = Eterna round: R95, input ligand: microRNA oligo, concentration not stated
[4] = Eterna round: R95, input ligand: none

Sequence | apparent KD of MS2 coat protein (input ligand: FMN 200 uM) | apparent KD of MS2 coat protein (input ligand: none) | apparent KD of MS2 coat protein [1] | apparent KD of MS2 coat protein [2] | apparent KD of MS2 coat protein [3] | apparent KD of MS2 coat protein [4]
GAUAUGCGUGUGAGGAUAUUCGACGCGCAAACGGAGAAGAAGGCACAUGAGGAUCACCCAUGUGGAGGGAAGAA [BmEX4 A.13] (Eterna round: R97, puzzle: Brourd's mod of Exclusion 4) | 82.8 nM | 20.7 nM | – | – | – | –
GAUCAACAUGAGGAUCACCCAUGUUAGGAUAUGUCCACGUGGCAUAGGACCACGUGUGGCAGAAGGAGCGUUAA [Eternabot (L2) Solution 52] (Eterna round: R97, puzzle: Exclusion 1) | 37.9 nM | 37.4 nM | – | – | – | –
GAUCAGUCAGGAUAUCAAUCCGCCUGUGAUACGCAGGCGGCUGAGAAGGGACAUGAGGAUCACCCAUGUAAAGA [jl-ex4-4.22 ViennaUCT mod] (Eterna round: R97, puzzle: Exclusion 4) | 191 nM | 80.4 nM | – | – | – | –
GAUCAUGCAGGAUAUACAUAAACCAUGAAAACAUGGAUCAAACAUGAGGAUCACCCAUGUAGAAGGGCAUGAUC [Omei Ex2 A20] (Eterna round: R97, puzzle: Exclusion 2) | 42 nM | 24.1 nM | – | – | – | –
GAUCAUGCAGGAUAUACAUGGAACAUGAAAACAUGAAUUUCACAUGAGGAUCACCCAUGUAGAAGGGCAUGAUC [Omei Ex2 A12] (Eterna round: R97, puzzle: Exclusion 2) | 54.2 nM | 579 nM | – | – | – | –
GAUCCUUUUACGGACGUCUCGAAACAUGAGGAUCACCCAUGUGAGGAUAUCUCCGAAAGGUCGGCAGAGAAGGCACAAUAACAA [MOD2 Eternabot solution 19 score 84.66] (Eterna round: R96, puzzle: Exclusion NG 3) | 29.4 nM | 18.7 nM | 13 nM | – | – | –
GAUCCUUUUACGGACGUCUCGAAACAUGAGGAUCACCCAUGUGAGGAUAUCUCCGAGAGAUCGGCAGAGAAGGCACAAUAACAA [MOD Eternabot solution 19 score 84.66] (Eterna round: R96, puzzle: Exclusion NG 3) | 91.4 nM | 50.3 nM | 19.7 nM | – | – | –
GAUCGACAUGAGGAUCACCCAUGUCAGGAUAUCUACAUUGAAGCUGCGGCUUCAAUGUAGAGAAGGGAUAUAAU [E1/16-B1] (Eterna round: R97, puzzle: Exclusion 1) | 36.9 nM | 27.2 nM | – | – | – | –
GAUGUGGGUUUCCGGAGGAACAUGAGGAUCACCCAUGUAGAAGUUGGAGGGAUAACGCUUUUUGCUCGUUACACGUG [JR_SV3TOV1_Sub055] (puzzle: Sensor v3, turn-off variant 1) | – | – | – | 178 nM | 170 nM | 221 nM
GAUUAAUGCAAGGAUAUGCUAUUAUUUUAUUUUGCAGAAGGUGCAACAUGAGGAUCACCCAUGUUGGAGGGUAU [JR_E6_Sub026] (puzzle: Exclusion 6) | – | – | – | – | 17.4 nM | –
GAUUAGAUAGGAUAUACAGGCUCGUCUUUAUAUUGAUCCCGACAUGAGGAUCACCCAUGUAGAAGGAUUAGAUU [Mod 30 - Jieux - Exclusion 2] (Eterna round: R97, puzzle: Exclusion 2) | 25.7 nM | 26.6 nM | – | – | – | –
GAUUAUGCGAGCUUUAGGGACAUGAGGAUCACCCAUGUUCGUCUUAUUAAUCUGGGUACACUGGCAUACCUAAAUCU [JMF 7] (puzzle: Sensor v3, turn-off variant 1) | – | – | – | 26.7 nM | 37.7 nM | 28.1 nM
GAUUAUGCGAGCUUUAGGGACAUGAGGAUCACCCAUGUUCGUCUUAUUAGUCUAGGUACACUAACAUACCUAAAUCU [JMF 18] (puzzle: Sensor v3, turn-off variant 1) | – | – | – | 21.3 nM | 38.8 nM | 21.9 nM
GAUUAUGCGAGCUUUAGGGACAUGAGGAUCACCCAUGUUCGUCUUAUUAGUCUAGGUGCGCUAACAUACCUAAAUCU [JMF 50] (puzzle: Sensor v3, turn-off variant 1) | – | – | – | 20.7 nM | 35.4 nM | 21.6 nM
GAUUAUGCGAGCUUUAGGGACAUGAGGAUCACCCAUGUUCGUCUUAUUGAUCUAGGUACACUGACAUACCUAAAUCU [JMF 66] (puzzle: Sensor v3, turn-off variant 1) | – | – | – | 23.7 nM | 39.9 nM | 24.5 nM
GAUUAUGCGAGCUUUAGGGACAUGAGGAUCACCCAUGUUCGUCUUAUUGAUCUGGAUGCACUGACAUACCUAAAUCU [JMF 80] (puzzle: Sensor v3, turn-off variant 1) | – | – | – | 29 nM | 37.5 nM | 28.3 nM

Sequence | apparent KD of MS2 coat protein (input ligand: FMN 200 uM) | apparent KD of MS2 coat protein (input ligand: none) | apparent KD of MS2 coat protein [1] | apparent KD of MS2 coat protein [2] | apparent KD of MS2 coat protein [3] | apparent KD of MS2 coat protein [4]
GAUUAUGCGAGCUUUAGGGACAUGAGGAUCACCCAUGUUCGUCUUAUUGGUCUAAAUGCACUAACAUACCUAAAUCU [JMF 23] (puzzle: Sensor v3, turn-off variant 1) | – | – | – | 17.7 nM | 22.4 nM | 19.3 nM
GAUUAUGCGAGCUUUAGGGACAUGAGGAUCACCCAUGUUCGUCUUAUUGGUCUGAAUACACUAACAUACCUAAAUCU [JMF 11] (puzzle: Sensor v3, turn-off variant 1) | – | – | – | 17.4 nM | 33.7 nM | 21.7 nM
GAUUGACAUGAGGAUCACCCAUGUGAGGAUAUCGGCCGGACCGUGCCGGCUUCCGUCGCGAGAAGGCGCAUAGG [Exclusion 1 V40] (puzzle: Exclusion 1) | – | – | – | 49.5 nM | 32 nM | 37.3 nM
GAUUGACAUGAGGAUCACCCAUGUGAGGAUAUCGGCUGGACCGUGUUGGCUUCGGUUUCGAGAAGGCGCAUAGG [Exclusion 1 V45] (puzzle: Exclusion 1) | – | – | – | 52.9 nM | 90.1 nM | 102 nM
GAUUGACAUGAGGAUCACCCAUGUGAGGAUAUCGGCUGGACCGUGUUGGCUUGCCUUUCGAGAAGGCGCAUAGG [Exclusion 1 V48] (puzzle: Exclusion 1) | – | – | – | – | 32.4 nM | –
GAUUGACAUGAGGAUCACCCAUGUGAGGAUAUCGGCUGGACCGUGUUGGCUUGGCUUUCGAGAAGGCGCAUAGG [Exclusion 1 V47] (puzzle: Exclusion 1) | – | – | – | 53.9 nM | 42.6 nM | 53.7 nM
GAUUUAGAGCAGGAUAUCAUAGAAUUGUAUGAAUGAGAAGGGCUCACAUGAGGAUCACCCAUGUGGUCCUAGAU [JL Dibiri mod 21] (puzzle: Exclusion 6) | – | – | – | – | 21.7 nM | –
GCAAGAAUAGGAUAUACACCAUGCCAGCUUCUAUACAACGCACAUGAGGAUCACCCAUGUAGAAGGGUUCUCUC [Exclusion-2-#11] (Eterna round: R97, puzzle: Exclusion 2) | 336 nM | 323 nM | – | – | – | –
GCAAGCUUAAUCUGUAUGAACAUGAGGAUCACCCAUGUAUAAGGGAAUUCUUUUGGGUUUUUUAUUGCUCGUCUUAU [JR_STOV1_Sub024] (Eterna round: R97, puzzle: Sensor, turn-off variant 1) | 260 nM | 329 nM | – | – | – | –
GCAAGCUUUUGCUCGUCUUACAUGAGGAUCACCCAUGUCGGGCCCGGGCUUCGUGGCCGGGCCCGCCGGGCGCCGGG [-37, -64.6 kcal, A 10%] (Eterna round: R97, puzzle: Sensor, turn-off variant 1) | 56.5 nM | 70.4 nM | – | – | – | –
GCAAGCUUUUUGCGUAGGAACAUGAGGAUCACCCAUGUGCAUGGAAAGAUGGGAAAGAAAGGAGAGAAAGAUGAAAG [Alacar 1] (Eterna round: R97, puzzle: Sensor, turn-off variant 1) | 101 nM | 88.1 nM | – | – | – | –
GCACGAAGUGGAGGAUAUCUGGGCGAGGAGCGCAGAGAAGGCCACAUGAGGAUCACCCAUGUGUUCCACGGAUCGCAAACGUGC [exng1 ex2] (Eterna round: R96, puzzle: Exclusion NG 1) | 69.3 nM | 20.9 nM | 14.4 nM | – | – | –
GCACGGAGUGUAGGAUAUCUGUGCGAUUAGCUCAGAGAAGGACACAUGAGGAUCACCCAUGUGUAACUCAAUACUAAUCCGUGC [Eli exng1 - 077] (Eterna round: R96, puzzle: Exclusion NG 1) | 10.6 nM | 10.7 nM | 7.89 nM | – | – | –
GCACGGUAAGUGAGGAUAUACCUCUGGAUACAGAGGUAGAAGGCACAUGAGGAUCACCCAUGUCUAUACCGUGC [Fiskers BMX 4 - 81] (puzzle: Brourd's mod of Exclusion 4) | – | – | – | 20.3 nM | 13.6 nM | 13.8 nM
GCACGGUAAGUGAGGAUAUACCUCUGGAUACAGAGGUAGAAGGCACAUGAGGAUCACCCAUGUUCCUGCCGUGC [Fiskers BMX 4 - 89] (puzzle: Brourd's mod of Exclusion 4) | – | – | – | – | 15.9 nM | –
